Data as given in PMC5566498, “SIRT7 antagonizes TGF-β signaling and inhibits breast cancer metastasis” (Nature Communications, 2017).

Molecular target: T1, 6× His-tagged SMAD4 (UniProt Q13485 1-552)
T1 construct: SMAD4; also called 6× His-SMAD4; source: purified from bacterial culture
T1 sequence (looked up): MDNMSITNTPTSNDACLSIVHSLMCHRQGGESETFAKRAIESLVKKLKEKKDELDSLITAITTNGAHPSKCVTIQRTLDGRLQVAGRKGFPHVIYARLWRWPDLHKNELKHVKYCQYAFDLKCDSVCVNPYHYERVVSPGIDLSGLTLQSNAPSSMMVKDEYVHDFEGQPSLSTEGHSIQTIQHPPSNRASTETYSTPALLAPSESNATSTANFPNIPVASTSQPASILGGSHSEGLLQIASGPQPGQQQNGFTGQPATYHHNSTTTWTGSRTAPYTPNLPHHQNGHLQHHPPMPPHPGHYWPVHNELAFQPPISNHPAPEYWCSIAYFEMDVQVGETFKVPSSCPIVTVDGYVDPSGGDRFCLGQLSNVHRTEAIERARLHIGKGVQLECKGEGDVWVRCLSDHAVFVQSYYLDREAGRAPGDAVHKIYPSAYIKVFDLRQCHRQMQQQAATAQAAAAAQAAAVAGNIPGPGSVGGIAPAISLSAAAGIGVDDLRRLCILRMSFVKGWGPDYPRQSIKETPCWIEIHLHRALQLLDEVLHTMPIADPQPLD
Test: pull-down; 1 µg GST-SIRT7 on Glutathione-Sepharose 4B, incubated with 6× His-SMAD4 for 2 h at 4 °C in 120 mM KCl, 20 mM Tris-HCl pH 7.9, 5 mM MgCl2, 0.2 mM EDTA, 10% glycerol, 0.2% NP-40; immunoblot
Conditions: both partners purified

B1: GST-SIRT7 (enzyme, UniProt Q9NRC8 1-400, looked up)
chain: MAAGGLSRSERKAAERVRRLREEQQRERLRQVSRILRKAAAERSAEEGRLLAESADLVTELQGRSRRREGLKRRQEEVCDDPEELRGKVRELASAVRNAKYLVVYTGAGISTAASIPDYRGPNGVWTLLQKGRSVSAADLSEAEPTLTHMSITRLHEQKLVQHVVSQNCDGLHLRSGLPRTAISELHGNMYIEVCTSCVPNREYVRVFDVTERTALHRHQTGRTCHKCGTQLRDTIVHFGERGTLGQPLNWEAATEAASRADTILCLGSSLKVLKKYPRLWCMTKPPSRRPKLYIVNLQWTPKDDWAALKLHGKCDDVMRLLMAELGLEIPAYSRWQDPIFSLATPLRAGEEGSHSRKSLCRSREEAPPGDRGAPLSSAPILGGWFGRGCTKRTKRKKVT
notes: SIRT7; also called purified GST-SIRT7; recombinant GST-SIRT7; source: recombinant, purified
binding result: binds
